Experiments:
Format in all cases: in vivo
[1] = test system: Arabidopsis thaliana T1 plants; assay: Mesotrione tolerance of transgenic Arabidopsis thaliana T1 plants (spray, bleached leaf area grade, damage score); design: Scores: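 damage score 0-100 computed as Σ(N×S)/(T×M)×100 over grades 0-3 with higher meaning more damage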; conditions: Arabidopsis thaliana T1 plants; for Grade 0 (classification and statistics of the grade of pesticide damage; number of plants) / Grade 1 (classification and statistics of the grade of pesticide damage; number of plants) / Grade 2 (classification and statistics of the grade of pesticide damage; number of plants) / Grade 3 (classification and statistics of the grade of pesticide damage; number of plants): 16 plants
In short: (§1)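 Read-out: per-plant damage grade 0–3 from proportion of bleached leaf area at 7 DAT (1 <50%, 2 >50%, 3 100%). Plants were T1 transformants, glufosinate-selected, plus wild-type CK, sprayed 18 days post-sowing. Rates: topramezone 25–200, isoxaflutole 35–280, mesotrione 52.5–420 g ai/ha.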

soybean T1 plants [2] = assay: Topramezone tolerance of transgenic soybean T1 plants; conditions: different concentrations
Method: T1 transformants were initially selected from the untransformed seeds using a glufosinate selection scheme. […] The degree of damage caused by the herbicide was measured for each plant according to the proportion of bleached leaf area (the proportion of bleached leaf area=bleached leaf area/total leaf area×100%) 7 days after spraying (7 DAT): the case where there is basically no bleached phenotype is defined as grade 0, the case where the proportion of bleached leaf area is less than 50% is defined as grade 1, the case where the proportion of bleached leaf area is more than 50% is defined as grade 2, and the case where the proportion of bleached leaf area is 100% grade is defined as grade 3.
The soybean T1 plants into which the SbHPPD-02 nucleotide sequence was introduced, soybean T1 plants into which the SbHPPDm-F372A-02 nucleotide sequence was introduced, soybean T1 plants into which the SbHPPDm-F383W-02 nucleotide sequence was introduced, soybean T1 plants into which the SbHPPDm-F372A-F383W-02 nucleotide sequence was introduced, soybean T1 plants into which the control vector DBN11726N nucleotide sequence was introduced, and wild-type soybean plants (V3-V4 at seedling stage) were sprayed with topramezone at three different concentrations (i.e., 25 g ai/ha (one-fold field concentration, 1×). […] According to the method in point 6 of Example 1, after 7 days of spraying (7 DAT), the damage degree of each plant by the herbicide was statistically analyzed, and the scoring and resistance evaluation were carried out accordingly. […]

soybean T1 plants [3] = assay: Isoxaflutole tolerance of transgenic soybean T1 plants; conditions: different concentrations
[4] = test system: Arabidopsis thaliana T1 plants; assay: Isoxaflutole tolerance of transgenic Arabidopsis thaliana T1 plants (spray, bleached leaf area grade, damage score); design: Scores (pesticide damage): scale not given here; conditions: spray, Arabidopsis thaliana T1 plants; for Classification and statistics of the grade of pesticide damage: Grade 0 (number of plants) / Classification and statistics of the grade of pesticide damage: Grade 1 (number of plants) / Classification and statistics of the grade of pesticide damage: Grade 2 (number of plants) / Classification and statistics of the grade of pesticide damage: Grade 3 (number of plants): 16 plants
In short: as §1

soybean T1 plants [5] = assay: Mesotrione tolerance of transgenic soybean T1 plants; conditions: different concentrations
[6] = test system: Arabidopsis thaliana T1 plants; assay: Topramezone tolerance of transgenic Arabidopsis thaliana T1 plants (spray, bleached leaf area grade, damage score); conditions: 7 DAT, Table 4; for Classification and statistics of the grade of pesticide damage: Grade 0 / Classification and statistics of the grade of pesticide damage: Grade 1 / Classification and statistics of the grade of pesticide damage: Grade 2 / Classification and statistics of the grade of pesticide damage: Grade 3: number of plants; for Scores: pesticide damage score 0-100
In short: as §1

[7] = isoxaflutole 35 g ai/ha (0.5x field concentration)
[8] = isoxaflutole 70 g ai/ha (1x field concentration)

B1: SbHPPDm-F372A-F383W-02: nucleotide sequence encoding Sorghum bicolor HPPD with F372A+F383W; vector DBN11761 (nucleic acid)
DNA: ATGCCGCCCACTCCAACAACTGCTGCTGCGACGGGAGCAGCTGTCGCCGCTGCTTCTGCTGAGCAGGCTGCCTTCAGGCTCGTCGGGCACAGAAATTTTGTTCGTGTAAATCCAAGGAGTGATAGGTTCCACACCTTGGCTTTTCACCACGTGGAGTTGTGGTGTGCTGATGCAGCCTCGGCAGCGGGGCGCTTCTCGTTTGGTCTCGGTGCTCCGCTCGCCGCAAGATCTGATCTTAGCACTGGAAACACAGCGCATGCCTCCCTGCTCCTGCGCTCTGGCGCGCTGGCGTTCCTCTTCACGGCGCCATATGCTCACGGCGCCGACGCCGCCACCGCGTCATTGCCGTCTTTTAGTGCAGCCGAAGCAAGAAGATTTGCAGCAGACCACGGCCTCGCCGTAAGGGCCGTGGCCTTACGTGTCGCCGATGCCGAAGATGCTTTCCGCGCCTCTGTAGCAGCTGGAGCAAGGCCAGCATTTGAACCTGTTGAATTGGGGTTAGGATTCCGTCTTGCAGAAGTTGAGCTTTATGGCGACGTTGTTTTGAGATACGTTTCATATCCTGATGACGCTGACGCTAGCTTCTTGCCTGGTTTTGTGGGGGTGACATCACCTGGGGCAGCAGATTATGGTCTCAGGCGGTTTGATCATATTGTTGGAAACGTTCCTGAACTCGCGCCGGCGGCAGCCTACTTCGCCGGTTTCACTGGGTTTCATGAATTTGCTGAATTCACAGCCGAGGATGTCGGCACCACCGAGAGTGGACTGAACTCCATGGTGCTGGCCAACAATGCAGAGAATGTCCTTCTTCCCTTGAATGAACCAGTTCATGGAACAAAAAGGCGTTCCCAAATACAAACATACCTCGACCATCATGGTGGACCAGGCGTTCAGCATATGGCTCTCGCTAGTGACGATGTTCTACGAACCCTGCGAGAGATGCAGGCGCGGTCTGCAATGGGAGGATTTGAGTTCATGGCACCTCCTGCCCCTGAATATTATGATGGTGTTCGGAGAAGGGCAGGTGATGTGCTAACTGAAGCTCAAATCAAGGAGTGCCAGGAGCTTGGCGTGCTGGTCGATCGGGATGATCAAGGTGTGCTTCTGCAGATTGCCACTAAACCAGTGGGTGACCGCCCCACGCTGTGGCTAGAGATCATCCAGAGAATAGGGTGCATGGAGAAGGACGAAAAAGGACAAGAGTACCAGAAGGGAGGTTGTGGCGGCTTTGGAAAAGGGAACTTCTCCCAATTATTCAAGTCAATTGAAGACTATGAAAAGAGTTTGGAGGCTAAGCAAGCTGCAGCCGCCCAGGGCAGCTGA
modifications: SbHPPDm-F372A-F383W-02 Nucleotide Sequence
notes: vector DBN11761
Resistance evaluation ([1]; mesotrione 52.5 g ai/ha): Highly resistant
Scores ([1]; mesotrione 52.5 g ai/ha): 13
Grade 0 (classification and statistics of the grade of pesticide damage; number of plants) ([1]; mesotrione 52.5 g ai/ha): 10
Grade 1 (classification and statistics of the grade of pesticide damage; number of plants) ([1]; mesotrione 52.5 g ai/ha): 6
Grade 2 (classification and statistics of the grade of pesticide damage; number of plants) ([1]; mesotrione 52.5 g ai/ha): 0
Grade 3 (classification and statistics of the grade of pesticide damage; number of plants) ([1]; mesotrione 52.5 g ai/ha): 0
Resistance evaluation ([1]; mesotrione 105 g ai/ha): Poorly resistant
Scores ([1]; mesotrione 105 g ai/ha): 38
Grade 0 (classification and statistics of the grade of pesticide damage; number of plants) ([1]; mesotrione 105 g ai/ha): 0
Grade 1 (classification and statistics of the grade of pesticide damage; number of plants) ([1]; mesotrione 105 g ai/ha): 14
Grade 2 (classification and statistics of the grade of pesticide damage; number of plants) ([1]; mesotrione 105 g ai/ha): 2
Grade 3 (classification and statistics of the grade of pesticide damage; number of plants) ([1]; mesotrione 105 g ai/ha): 0
tolerance to HPPD-inhibitor herbicides (in words): topramezone (soybean T1 plants [2]): different degrees of tolerance
tolerance to HPPD-inhibitor herbicides (in words): isoxaflutole (soybean T1 plants [3]): different degrees of tolerance
Resistance evaluation [4, 7]: Highly
Scores (pesticide damage) [4, 7]: 8
Classification and statistics of the grade of pesticide damage: Grade 0 (number of plants) [4, 7]: 12
Classification and statistics of the grade of pesticide damage: Grade 1 (number of plants) [4, 7]: 4
Classification and statistics of the grade of pesticide damage: Grade 2 (number of plants) [4, 7]: 0
Classification and statistics of the grade of pesticide damage: Grade 3 (number of plants) [4, 7]: 0
Resistance evaluation [4, 8]: Highly
Scores (pesticide damage) [4, 8]: 13
Classification and statistics of the grade of pesticide damage: Grade 0 (number of plants) [4, 8]: 10
Classification and statistics of the grade of pesticide damage: Grade 1 (number of plants) [4, 8]: 6
Classification and statistics of the grade of pesticide damage: Grade 2 (number of plants) [4, 8]: 0
Classification and statistics of the grade of pesticide damage: Grade 3 (number of plants) [4, 8]: 0
tolerance to HPPD-inhibitor herbicides (in words): mesotrione (soybean T1 plants [5]): different degrees of tolerance
Classification and statistics of the grade of pesticide damage: Grade 0 ([6]; topramezone 25 g ai/ha (1×)): 16
Classification and statistics of the grade of pesticide damage: Grade 1 ([6]; topramezone 25 g ai/ha (1×)): 0
Classification and statistics of the grade of pesticide damage: Grade 2 ([6]; topramezone 25 g ai/ha (1×)): 0
Classification and statistics of the grade of pesticide damage: Grade 3 ([6]; topramezone 25 g ai/ha (1×)): 0
Classification and statistics of the grade of pesticide damage: Grade 0 ([6]; topramezone 100 g ai/ha (4×)): 9
Classification and statistics of the grade of pesticide damage: Grade 1 ([6]; topramezone 100 g ai/ha (4×)): 7
Classification and statistics of the grade of pesticide damage: Grade 2 ([6]; topramezone 100 g ai/ha (4×)): 0
Classification and statistics of the grade of pesticide damage: Grade 3 ([6]; topramezone 100 g ai/ha (4×)): 0
Scores ([6]; topramezone 25 g ai/ha (1×)): 0
Scores ([6]; topramezone 100 g ai/ha (4×)): 15
Resistance evaluation ([6]; topramezone 25 g ai/ha (1×)): highly
Resistance evaluation ([6]; topramezone 100 g ai/ha (4×)): highly

— patent US20250043302A1, “MUTATED HYDROXYPHENYLPYRUVATE DIOXYGENASE POLYPEPTIDE, AND CODING GENE AND USE THEREOF” (BEIJING DABEINONG BIOTECHNOLOGY CO., LTD., priority 2021, published 2025)
